Substitutions are numbered along the chain they refer to. In names and notes the source's numbering stands.
T1: wild-type sβc, soluble extracellular domain of human βc (human, UniProt P32927 17-443)
T1 construct: extracellular domain; Expressed in Sf21 cells
T1 sequence (looked up): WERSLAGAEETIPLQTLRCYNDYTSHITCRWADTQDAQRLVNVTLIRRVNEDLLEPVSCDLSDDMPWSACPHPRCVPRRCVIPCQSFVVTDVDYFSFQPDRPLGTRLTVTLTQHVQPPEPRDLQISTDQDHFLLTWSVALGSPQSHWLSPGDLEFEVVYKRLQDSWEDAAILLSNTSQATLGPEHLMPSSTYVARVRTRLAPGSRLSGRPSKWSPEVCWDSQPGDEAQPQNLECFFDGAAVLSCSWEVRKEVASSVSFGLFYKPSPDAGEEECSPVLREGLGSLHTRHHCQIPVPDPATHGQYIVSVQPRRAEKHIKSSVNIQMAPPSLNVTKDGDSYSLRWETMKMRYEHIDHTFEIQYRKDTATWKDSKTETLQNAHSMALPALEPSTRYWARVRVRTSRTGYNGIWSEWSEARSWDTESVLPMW

B1: IL-3, P08700 20-152 (ligand, UniProt P08700 20-152, looked up)
chain: APMTQTTPLKTSWVNCSNMIDEIITHLKQPPLPLLDFNNLNGEDQDILMENNLRRPNLEAFNRAVKSLQNASAIESILKNLLPCLPLATAAPTRHPIHIKDGDWNEFRRKLTFYLKTLENAQAQQTTLSLAIF
modifications: here or on the partner: radio-iodinated (125I) in the COS cell binding assays
B2: sβc N346Q, soluble extracellular domain of human βc with the third N-glycosylation site removed (receptor, UniProt P32927 17-443, looked up)
chain: T1 sequence (looked up) with N330Q
modifications: N-linked carbohydrate at Asn58 (NAG-NAG-MAN) and Asn191 (NAG)
notes: extracellular domain; Intertwined homodimer; Cloned into pIBV5-His; also called sβc ΔN3; GM-CSF βc chain
B3: sGM-CSFRα, soluble extracellular domain of the GM-CSF receptor alpha chain, expressed in Sf21 insect cells (receptor, human, UniProt P15509 23-320, looked up)
chain: EKSDLRTVAPASSLNVRFDSRTMNLSWDCQENTTFSKCFLTDKKNRVVEPRLSNNECSCTFREICLHEGVTFEVHVNTSQRGFQQKLLYPNSGREGTAAQNFSCFIYNADLMNCTWARGPTAPRDVQYFLYIRNSKRRREIRCPYYIQDSGTHVGCHLDNLSGLTSRNYFLVNGTSREIGIQFFDSLLDTKKIERFNPPSNVTVRCNTTHCLVRWKQPRTYQKLSYLDFQYQLDVHRKNTQPGTENLLINVSGDLENRYNFPSSEPRAKHSVKIRAADVRILNWSSWSEAIEFGSDDG
modifications: N-linked carbohydrate at Asn229 (modeled as NAG-NAG)
notes: extracellular domain; Cloned into the pIBV5-His vector; Residues 218-316 (domain 2) were traced in the crystal; also called GMRα

Legend:
[1] = target: IL-3 receptor on cells: IL3Rα co-expressed with the βc4 Gpoly-A mutant (M7-βc) (human), P26951; test: cell-based or functional assay
Sequence of IL-3 receptor on cells: IL3Rα co-expressed with the βc4 Gpoly-A mutant (M7-βc) (human), P26951 (P26951 19-378, change not shown): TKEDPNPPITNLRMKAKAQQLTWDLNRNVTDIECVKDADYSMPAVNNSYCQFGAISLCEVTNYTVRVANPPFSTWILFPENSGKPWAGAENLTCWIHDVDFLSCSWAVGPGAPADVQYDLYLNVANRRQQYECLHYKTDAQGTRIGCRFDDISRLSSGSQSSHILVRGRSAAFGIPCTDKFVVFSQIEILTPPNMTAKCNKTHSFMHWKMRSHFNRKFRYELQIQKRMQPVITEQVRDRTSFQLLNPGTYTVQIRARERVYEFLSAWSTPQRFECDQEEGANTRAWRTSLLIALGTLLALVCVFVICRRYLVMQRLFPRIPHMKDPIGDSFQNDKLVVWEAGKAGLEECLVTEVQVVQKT

[2] = target: the molecule itself; test: X-ray crystal structure, 3.3 Å
Method: (§1) The structure was determined by molecular replacement using the method of Storoni et al, Acta Crystallogr. D 60:432, 2004.
(§2) A homology model of domain 2 of the alpha chain was built into this density. […] D Biol. Crystallogr. 50:760, 1994 and refinement using the method of Murshudov et al, Acta Crystallogr. D 53:240, 1997. […] During the final refinement step each subunit was treated as a rigid body for the purposes of TLS (translation, libration and screw rotation tensors) refinement to account for overall differences in displacements between the molecules and anisotropy in the data (Winn et al, Acta Crystallogr. D 57:122, 2001; Painter and Merritt, Acta Crystallogr. D 62:439, 2006).

[3] = target: B2; test: X-ray crystal structure, 3.3 Å
Method: as §1, §2

[4] = target: T1, wild-type sβc, soluble extracellular …; test: ternary complex formation of soluble proteins (all three present); wild type as the reference

Binder: B1
- ED50 of proliferation of CTL-EN cells in response to IL-3 [1]: 0.0103 µg/mL
- fold increase of ED50 against wild type βc [1]: 413 fold

Binder: B2
- binding result [2]: binds

Binder: B3
- binding result [3]: binds
- binding result [4]: binds

Reference: patent publication US20110150884A1 (ST VINCENT S INSTITUTE OF MEDICAL RESEARCH, published 2011)
